{"source": "paper PMC6349045", "binders": {"B1": {"name": "Bio-DNA84 (MLV U3 LTR fragment) (dsDNA)", "DNA 1": "AGGATATCTGTGGTAAGCAGTTCCTGCCCCGGCTCAGGGCCAAGAACAGATGGTCCCCAGATGCGGTCCAGCCCTCAGCAGTTT", "DNA 2": "AAACTGCTGAGGGCTGGACCGCATCTGGGGACCATCTGTTCTTGGCCCTGAGCCGGGGCAGGAACTGCTTACCACAGATATCCT"}, "B2": {"name": "DNA84 (unlabeled) (dsDNA)", "DNA 1": "B1 DNA 1", "DNA 2": "B1 DNA 2"}, "B3": {"name": "DNA72 (NP220 sites deleted) (dsDNA)", "DNA 1": "AGGATATCTGTGGTAAGCAGTTCCTGCTCAGGGCCAAGAACAGATGGTATGCGGTCCAGCCCTCAGCAGTTT", "DNA 2": "AAACTGCTGAGGGCTGGACCGCATACCATCTGTTCTTGGCCCTGAGCAGGAACTGCTTACCACAGATATCCT"}}, "key": {"[1]": {"target": "T1, NP220 DNA-binding domain (NP220DB) (UniProt Q14966 1240-1478)", "T1 sequence": "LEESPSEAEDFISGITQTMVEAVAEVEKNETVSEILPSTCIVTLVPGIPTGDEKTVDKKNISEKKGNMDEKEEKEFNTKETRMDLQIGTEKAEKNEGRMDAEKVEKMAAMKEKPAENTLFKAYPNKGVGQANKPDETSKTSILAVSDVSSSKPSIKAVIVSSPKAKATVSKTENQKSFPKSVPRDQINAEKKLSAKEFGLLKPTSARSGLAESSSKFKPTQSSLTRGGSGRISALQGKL", "test": "EMSA"}, "[2]": {"target": "T1, NP220 DNA-binding domain (NP220DB)", "test": "competition"}, "[3]": {"target": "T1, NP220 DNA-binding domain (NP220DB)", "test": "competition", "remark": "listed apart in the source"}}, "data": [{"binder": "B1", "values": [{"measurement": "binding result", "setting": "[1]", "result": "binds"}]}, {"binder": "B2", "values": [{"measurement": "binding result", "setting": "[2]", "result": "binds"}]}, {"binder": "B3", "values": [{"measurement": "binding result", "setting": "[3]", "result": "no binding"}]}]}
